Where two headings read alike, the source gives them in different places. No end group written: not given here.
Tests used:
Conditions in all cases: modification not given
PC2, P16519 [1] = molecular target: T1, PC2, P16519
T1 chain: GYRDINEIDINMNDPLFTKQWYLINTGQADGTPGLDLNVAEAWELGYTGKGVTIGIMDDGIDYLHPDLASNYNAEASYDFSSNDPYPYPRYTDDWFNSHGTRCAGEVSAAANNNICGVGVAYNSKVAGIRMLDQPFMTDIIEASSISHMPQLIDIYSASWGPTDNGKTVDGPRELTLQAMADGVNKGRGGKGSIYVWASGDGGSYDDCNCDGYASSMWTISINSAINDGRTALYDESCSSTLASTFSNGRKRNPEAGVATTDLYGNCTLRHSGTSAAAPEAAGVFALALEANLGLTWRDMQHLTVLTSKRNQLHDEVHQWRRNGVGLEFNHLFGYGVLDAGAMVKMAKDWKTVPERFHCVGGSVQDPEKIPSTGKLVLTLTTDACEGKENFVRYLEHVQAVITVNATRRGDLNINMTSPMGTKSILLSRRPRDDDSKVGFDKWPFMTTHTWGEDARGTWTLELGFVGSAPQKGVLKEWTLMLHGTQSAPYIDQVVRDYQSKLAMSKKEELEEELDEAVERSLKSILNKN

[2] = molecular target: T2, Furin (recombinant, truncated) (mouse), P23188
T2 chain: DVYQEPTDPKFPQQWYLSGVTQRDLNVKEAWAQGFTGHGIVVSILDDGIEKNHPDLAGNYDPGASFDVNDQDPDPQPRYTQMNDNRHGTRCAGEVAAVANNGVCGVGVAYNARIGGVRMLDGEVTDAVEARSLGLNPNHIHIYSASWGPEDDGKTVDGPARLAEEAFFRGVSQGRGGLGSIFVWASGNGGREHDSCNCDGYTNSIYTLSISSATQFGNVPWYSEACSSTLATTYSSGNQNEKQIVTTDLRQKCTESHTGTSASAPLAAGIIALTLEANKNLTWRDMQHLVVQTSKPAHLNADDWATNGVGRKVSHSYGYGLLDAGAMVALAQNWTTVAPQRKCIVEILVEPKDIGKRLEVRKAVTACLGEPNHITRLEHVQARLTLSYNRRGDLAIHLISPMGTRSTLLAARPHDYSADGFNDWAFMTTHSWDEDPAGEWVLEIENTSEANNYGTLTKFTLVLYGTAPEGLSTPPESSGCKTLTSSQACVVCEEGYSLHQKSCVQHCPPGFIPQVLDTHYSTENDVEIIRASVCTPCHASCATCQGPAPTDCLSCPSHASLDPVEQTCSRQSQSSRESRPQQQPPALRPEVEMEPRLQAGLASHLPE

PC2, P16519 [3] = molecular target: T1, PC2, P16519
[4] = molecular target: T2, Furin (recombinant, truncated) (mouse), …
PC2, P16519 [5] = molecular target: T1, PC2, P16519
[6] = molecular target: T2, Furin (recombinant, truncated) (mouse), …
[7] = molecular target: T2, Furin (recombinant, truncated) (mouse), …
PACE4, P29122 [8] = molecular target: T3, PACE4, P29122
T3 chain: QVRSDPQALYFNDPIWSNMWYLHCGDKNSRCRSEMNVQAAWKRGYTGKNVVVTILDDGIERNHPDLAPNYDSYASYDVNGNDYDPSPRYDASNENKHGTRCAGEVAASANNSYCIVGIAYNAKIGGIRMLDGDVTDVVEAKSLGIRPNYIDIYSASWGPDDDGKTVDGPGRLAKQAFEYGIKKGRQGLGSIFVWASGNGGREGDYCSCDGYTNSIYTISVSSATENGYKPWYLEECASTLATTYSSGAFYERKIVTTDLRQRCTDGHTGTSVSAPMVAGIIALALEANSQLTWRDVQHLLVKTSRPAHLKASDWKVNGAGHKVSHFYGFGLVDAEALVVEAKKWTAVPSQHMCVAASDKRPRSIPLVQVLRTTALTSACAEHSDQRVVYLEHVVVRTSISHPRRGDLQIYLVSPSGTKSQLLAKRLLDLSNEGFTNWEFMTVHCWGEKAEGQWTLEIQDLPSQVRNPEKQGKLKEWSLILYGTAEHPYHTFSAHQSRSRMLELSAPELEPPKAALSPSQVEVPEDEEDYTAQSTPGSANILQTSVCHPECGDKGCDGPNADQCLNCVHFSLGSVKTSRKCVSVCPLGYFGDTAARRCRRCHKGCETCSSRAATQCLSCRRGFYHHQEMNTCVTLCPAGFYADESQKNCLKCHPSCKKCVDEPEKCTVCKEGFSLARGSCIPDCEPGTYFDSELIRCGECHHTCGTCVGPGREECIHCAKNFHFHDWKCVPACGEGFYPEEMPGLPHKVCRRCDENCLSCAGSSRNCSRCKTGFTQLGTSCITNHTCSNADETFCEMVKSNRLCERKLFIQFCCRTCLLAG

PC1, P29120 [9] = molecular target: T4, PC1, P29120
T4 chain: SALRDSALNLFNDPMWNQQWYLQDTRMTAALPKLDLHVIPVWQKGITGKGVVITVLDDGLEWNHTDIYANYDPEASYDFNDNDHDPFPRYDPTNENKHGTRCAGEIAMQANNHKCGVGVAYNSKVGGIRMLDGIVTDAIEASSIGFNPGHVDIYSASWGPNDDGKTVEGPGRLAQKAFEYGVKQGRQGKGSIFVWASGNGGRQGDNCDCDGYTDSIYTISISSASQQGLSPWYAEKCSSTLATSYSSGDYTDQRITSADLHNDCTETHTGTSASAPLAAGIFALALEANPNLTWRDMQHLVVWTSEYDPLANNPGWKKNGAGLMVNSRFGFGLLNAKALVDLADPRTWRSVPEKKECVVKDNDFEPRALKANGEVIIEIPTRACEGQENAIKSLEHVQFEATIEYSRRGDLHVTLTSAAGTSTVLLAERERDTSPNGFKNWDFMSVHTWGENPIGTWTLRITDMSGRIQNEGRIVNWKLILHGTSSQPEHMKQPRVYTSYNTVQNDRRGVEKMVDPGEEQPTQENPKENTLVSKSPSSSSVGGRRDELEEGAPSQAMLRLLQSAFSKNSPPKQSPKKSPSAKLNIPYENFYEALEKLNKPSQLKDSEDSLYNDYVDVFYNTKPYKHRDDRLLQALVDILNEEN

[10] = molecular target: T2, Furin (recombinant, truncated) (mouse), …
PACE4, P29122 [11] = molecular target: T3, PACE4, P29122
PC1, P29120 [12] = molecular target: T4, PC1, P29120
PC2, P16519 [13] = molecular target: T1, PC2, P16519
[14] = molecular target: T2, Furin (recombinant, truncated) (mouse), …
[15] = molecular target: Furin (literature), P09958
PC7, Q16549 = molecular target: T5, PC7, Q16549
T5 chain: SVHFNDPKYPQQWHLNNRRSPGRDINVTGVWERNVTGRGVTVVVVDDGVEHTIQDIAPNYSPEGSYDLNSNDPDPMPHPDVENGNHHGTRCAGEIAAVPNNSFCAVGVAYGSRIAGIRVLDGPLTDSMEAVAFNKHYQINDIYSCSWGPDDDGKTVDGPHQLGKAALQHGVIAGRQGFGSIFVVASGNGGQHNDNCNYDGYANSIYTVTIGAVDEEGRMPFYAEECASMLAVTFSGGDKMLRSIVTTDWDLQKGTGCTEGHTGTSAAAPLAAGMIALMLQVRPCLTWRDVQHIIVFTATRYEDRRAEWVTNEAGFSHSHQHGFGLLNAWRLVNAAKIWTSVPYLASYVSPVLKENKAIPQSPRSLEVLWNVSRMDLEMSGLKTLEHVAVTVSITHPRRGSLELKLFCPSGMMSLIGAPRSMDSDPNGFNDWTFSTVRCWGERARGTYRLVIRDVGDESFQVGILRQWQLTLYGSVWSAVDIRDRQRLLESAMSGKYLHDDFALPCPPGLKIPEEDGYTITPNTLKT

[16] = molecular target: T2, Furin (recombinant, truncated) (mouse), …
PACE4, P29122 [17] = molecular target: T3, PACE4, P29122
PC1, P29120 [18] = molecular target: T4, PC1, P29120
[19] = molecular target: T2, Furin (recombinant, truncated) (mouse), …
PC2, P16519 [20] = molecular target: T1, PC2, P16519
PC2, P16519 [21] = molecular target: T1, PC2, P16519
[22] = molecular target: T2, Furin (recombinant, truncated) (mouse), …
[23] = molecular target: T2, Furin (recombinant, truncated) (mouse), …
PC2, P16519 [24] = molecular target: T1, PC2, P16519

Chain of Furin (literature), P09958 (P09958 108-715): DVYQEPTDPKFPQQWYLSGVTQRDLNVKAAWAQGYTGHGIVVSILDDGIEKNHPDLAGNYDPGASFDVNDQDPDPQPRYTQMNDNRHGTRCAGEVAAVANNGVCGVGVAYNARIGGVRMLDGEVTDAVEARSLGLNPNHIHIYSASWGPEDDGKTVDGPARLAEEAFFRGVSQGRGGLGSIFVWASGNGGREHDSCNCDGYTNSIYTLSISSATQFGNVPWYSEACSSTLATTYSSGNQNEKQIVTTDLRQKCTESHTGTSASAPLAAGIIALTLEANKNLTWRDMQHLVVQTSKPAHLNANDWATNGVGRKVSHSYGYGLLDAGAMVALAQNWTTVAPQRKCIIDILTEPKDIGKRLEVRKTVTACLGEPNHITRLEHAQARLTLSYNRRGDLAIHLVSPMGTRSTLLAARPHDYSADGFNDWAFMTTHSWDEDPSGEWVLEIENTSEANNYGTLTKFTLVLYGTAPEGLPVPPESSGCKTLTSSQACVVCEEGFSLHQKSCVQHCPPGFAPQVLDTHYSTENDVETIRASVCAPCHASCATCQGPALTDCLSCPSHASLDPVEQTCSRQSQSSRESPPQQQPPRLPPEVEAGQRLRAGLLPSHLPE

Ac-RHKRRR-NH2 [Ac-RHKRRR-NH2] was tested, and the Ki (PC2, P16519 [1]) was 152000 nM and the Ki [2] was 3400 nM.

For Ac-KRKRRR-NH2 [Ac-KRKRRR-NH2], the Ki (PC2, P16519 [3]) was 391000 nM and the Ki [4] was 1600 nM.

With Ac-RRKRRR-NH2 [Ac-RRKRRR-NH2] the Ki (PC2, P16519 [5]) was 461000 nM and the Ki [6] was 1300 nM.

RRRRRRRRR [Nona-L-arginine] showed a Ki [7] of 42 nM, a Ki (PACE4, P29122 [8]) of 110 nM and a Ki (PC1, P29120 [9]) of 12000 nM.

RRRRRRRR [Octa-L-arginine] was tested, and the Ki [10] was 61 nM, the Ki (PACE4, P29122 [11]) was 150 nM and the Ki (PC1, P29120 [12]) was 5100 nM.

Ac-HRKRRR-NH2 [Ac-HRKRRR-NH2] showed a Ki (PC2, P16519 [13]) of 309000 nM and a Ki [14] of 2100 nM.

With EQRLLKRAKR [PC7 propeptide fragment] the Ki [15] was 80 nM and the Ki (PC7, Q16549) was 6 nM.

In the case of RRRRR [Penta-L-arginine], the Ki [16] is reported as 990 nM, the Ki (PACE4, P29122 [17]) is reported as 980 nM and the Ki (PC1, P29120 [18]) is reported as 14000 nM.

With Ac-LLRVKR-NH2 [Ac-LLRVKR-NH2] the Ki [19] was 3400 nM and the Ki (PC2, P16519 [20]) was 1000 nM.

Ac-KHKRRR-NH2 [Ac-KHKRRR-NH2] showed a Ki (PC2, P16519 [21]) of 280000 nM and a Ki [22] of 5200 nM.

Ac-LLRVKR [Ac-LLRVKR] gave a Ki [23] of 3500 nM and a Ki (PC2, P16519 [24]) of 1300 nM.
